Some targets named below: hCCR2b (human) (UniProt P41597); hCCR9 (human) (UniProt P51686); hCCR7 (human) (UniProt P32248).
What all share (assay): cell-based or functional assay
Another assay addresses T1, hCCR6 (human) (UniProt P51684).
T1 sequence (looked up): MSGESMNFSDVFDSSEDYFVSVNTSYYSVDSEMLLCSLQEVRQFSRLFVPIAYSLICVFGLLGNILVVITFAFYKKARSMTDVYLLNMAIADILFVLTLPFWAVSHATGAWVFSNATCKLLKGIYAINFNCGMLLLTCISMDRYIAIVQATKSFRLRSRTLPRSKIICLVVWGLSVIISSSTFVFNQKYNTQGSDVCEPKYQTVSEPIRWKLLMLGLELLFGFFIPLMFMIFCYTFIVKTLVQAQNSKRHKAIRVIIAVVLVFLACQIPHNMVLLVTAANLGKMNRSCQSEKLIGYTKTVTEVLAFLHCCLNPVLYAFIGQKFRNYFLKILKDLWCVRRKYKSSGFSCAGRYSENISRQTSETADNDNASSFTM

For a further assay, the target named is T2, hCCR4 (human, UniProt P51679 1-360).
T2 sequence (looked up): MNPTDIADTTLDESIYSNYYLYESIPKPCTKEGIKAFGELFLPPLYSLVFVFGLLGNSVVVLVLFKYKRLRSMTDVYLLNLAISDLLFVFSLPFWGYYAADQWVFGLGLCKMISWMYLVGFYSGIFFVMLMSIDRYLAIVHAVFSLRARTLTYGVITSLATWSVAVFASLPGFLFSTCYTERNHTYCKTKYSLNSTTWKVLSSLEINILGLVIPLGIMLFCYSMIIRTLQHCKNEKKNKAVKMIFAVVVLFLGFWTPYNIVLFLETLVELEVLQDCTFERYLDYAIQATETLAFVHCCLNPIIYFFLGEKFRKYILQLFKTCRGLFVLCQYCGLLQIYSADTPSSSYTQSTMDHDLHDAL

Assay [1] addresses hCXCR3 (human) (UniProt P49682).
Assay [2] deals with T3, CCR6 on lymphocytes in blood of healthy donors (human) (UniProt P51684).
T3 sequence (looked up): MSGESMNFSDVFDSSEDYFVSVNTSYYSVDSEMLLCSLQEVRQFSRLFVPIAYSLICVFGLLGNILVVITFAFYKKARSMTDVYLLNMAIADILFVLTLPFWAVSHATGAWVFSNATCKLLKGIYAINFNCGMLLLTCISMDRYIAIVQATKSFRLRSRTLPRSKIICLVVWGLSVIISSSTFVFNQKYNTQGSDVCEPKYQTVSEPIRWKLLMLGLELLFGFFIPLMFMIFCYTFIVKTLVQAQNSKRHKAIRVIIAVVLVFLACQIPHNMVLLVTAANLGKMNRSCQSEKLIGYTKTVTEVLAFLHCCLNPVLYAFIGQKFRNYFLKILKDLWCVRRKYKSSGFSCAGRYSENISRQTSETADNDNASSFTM

The target of another assay is T4, hCCR10 (human, UniProt P46092 1-362).
T4 sequence (looked up): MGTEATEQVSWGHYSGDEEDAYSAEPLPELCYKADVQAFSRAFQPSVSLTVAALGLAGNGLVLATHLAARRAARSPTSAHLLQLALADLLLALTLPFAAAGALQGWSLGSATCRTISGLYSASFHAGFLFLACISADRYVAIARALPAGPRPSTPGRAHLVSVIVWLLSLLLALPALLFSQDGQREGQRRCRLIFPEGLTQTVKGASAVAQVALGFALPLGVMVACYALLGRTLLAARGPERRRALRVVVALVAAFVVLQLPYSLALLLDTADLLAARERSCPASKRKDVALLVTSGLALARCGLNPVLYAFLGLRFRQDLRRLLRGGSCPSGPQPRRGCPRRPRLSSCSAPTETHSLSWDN

In assay [3] the target is hCXCR3 (human) (UniProt P49682). The source holds these as a separate data set.
hCXCR3 (human), sequence (P49682 whole entry): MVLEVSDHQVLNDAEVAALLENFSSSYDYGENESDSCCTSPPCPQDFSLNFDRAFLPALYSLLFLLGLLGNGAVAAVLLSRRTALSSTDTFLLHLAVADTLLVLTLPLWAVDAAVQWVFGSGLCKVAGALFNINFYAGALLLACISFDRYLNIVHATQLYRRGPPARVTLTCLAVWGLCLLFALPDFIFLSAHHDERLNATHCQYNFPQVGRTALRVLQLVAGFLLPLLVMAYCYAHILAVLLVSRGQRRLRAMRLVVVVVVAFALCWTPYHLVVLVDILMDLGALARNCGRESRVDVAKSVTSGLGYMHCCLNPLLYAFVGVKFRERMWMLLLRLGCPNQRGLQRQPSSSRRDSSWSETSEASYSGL

This is an account of results in patent US20180038860A1 (published 2018).

Like-named read-outs stand apart in the source and are kept apart here. Bridge positions count the residues as written; N and C are the ends. Side chains are listed from the residue outwards. * marks the point of attachment. Biotin = O=C1N[C@H]2[C@H](CS[C@H]2CCCCC(=O)*)N1; AEEA = NCCOCCOCC(=O)O

hCCR9 (human), sequence (P51686 whole entry): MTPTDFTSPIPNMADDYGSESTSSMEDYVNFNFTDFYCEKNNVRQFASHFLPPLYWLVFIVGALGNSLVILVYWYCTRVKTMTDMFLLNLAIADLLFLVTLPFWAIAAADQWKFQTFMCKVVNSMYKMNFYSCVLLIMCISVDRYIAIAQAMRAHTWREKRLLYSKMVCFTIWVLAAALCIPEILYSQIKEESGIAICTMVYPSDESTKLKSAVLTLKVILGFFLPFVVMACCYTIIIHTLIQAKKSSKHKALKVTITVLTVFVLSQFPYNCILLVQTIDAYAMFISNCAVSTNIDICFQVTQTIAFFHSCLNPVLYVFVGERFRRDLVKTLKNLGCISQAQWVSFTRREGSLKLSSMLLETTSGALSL
hCCR2b (human), sequence (P41597 other isoform, or with tags, fused parts or gaps limits assumed): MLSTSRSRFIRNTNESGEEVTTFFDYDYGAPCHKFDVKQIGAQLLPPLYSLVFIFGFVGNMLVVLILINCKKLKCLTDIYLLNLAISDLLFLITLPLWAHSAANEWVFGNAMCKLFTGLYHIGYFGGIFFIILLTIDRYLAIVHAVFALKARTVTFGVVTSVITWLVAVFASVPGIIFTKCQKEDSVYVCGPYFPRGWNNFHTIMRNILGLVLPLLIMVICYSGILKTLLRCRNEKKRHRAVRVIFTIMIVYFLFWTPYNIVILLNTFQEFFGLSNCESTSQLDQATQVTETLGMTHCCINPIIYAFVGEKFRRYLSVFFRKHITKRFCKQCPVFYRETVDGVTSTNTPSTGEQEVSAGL
hCCR7 (human), sequence (P32248 25-378 limits assumed): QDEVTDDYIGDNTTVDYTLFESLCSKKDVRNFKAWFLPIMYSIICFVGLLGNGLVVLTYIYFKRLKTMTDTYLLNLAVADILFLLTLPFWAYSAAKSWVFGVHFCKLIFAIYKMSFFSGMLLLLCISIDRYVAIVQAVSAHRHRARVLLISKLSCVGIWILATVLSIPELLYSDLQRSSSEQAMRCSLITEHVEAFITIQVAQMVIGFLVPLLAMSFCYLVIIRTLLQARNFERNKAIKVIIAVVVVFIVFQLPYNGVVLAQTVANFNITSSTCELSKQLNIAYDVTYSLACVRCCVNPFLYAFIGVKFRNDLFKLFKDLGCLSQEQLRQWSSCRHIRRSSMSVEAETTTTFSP

The molecule “recombinant native MCP-2 (from UniProt P80075 24-99) (ligand)” came in with an EC50, Aequorin assay (partial agonist) with hCCR2b (human) of 23.5 nM. Consider “biotinTECK(Met to Nleu substitution) (CCL25), derivatised at the ε-amino side chain functionality of Lys72 with PEG-Biotin (from UniProt O15444 25-97) (ligand)”, for which, in the assay with hCCR9 (human), the EC50, Aequorin assay (agonist activity) amounted to 63.6 nM.

Regarding “recombinant native MIP-3α (from UniProt P78556 27-96) (ligand)”, the EC50, Aequorin assay (agonist activity) with hCCR6 (human) turned out to be 1 nM. For “recombinant native TARC (from UniProt Q92583 24-94) (ligand)”, the EC50, Aequorin assay (agonist activity) with hCCR4 was found to be 2.6 nM. Take “recombinant native MIP-3β (from UniProt Q99731 22-98) (ligand)”: the EC50, Aequorin assay (agonist activity) with hCCR7 (human) turned out to be 1.6 nM. As for “recombinant native TECK (from UniProt O15444 24-150) (ligand)”, in the assay with hCCR9 (human), the EC50, Aequorin assay (agonist activity) amounted to 67.9 nM. On to “recombinant native IP-10 (from UniProt P02778 22-98) (ligand)”, for which, in the assay with hCXCR3 (human) [1], the EC50, Aequorin assay (agonist activity) amounted to 4.4 nM.

Turning to “biotinylated MIP-3alpha coupled matrix (from UniProt P78556 27-96) (ligand)”, the reduction of CCR6-expressing cells after column passage (flow cytometry) in [2] is below 15%.

B1: biotinCTAC (CCL27), CTAC derivatised at the ε-amino side chain functionality of Lys(87) with PEG-Biotin (ligand)
chain: FLLPPSTACCTQLYRKPLSDKLLRKVIQVELQEADGDCHLQAFVLHLAQRSICIHPQNPSLSQWFEHQERKLHGTLPKLNFGMLRKK([AEEA-Biotin])G-OH
modifications: disulfide 10-53, 9-38; ends not checked; also: TFA salt
Turning to B1, in the assay with hCCR10, the “EC50, Aequorin assay (agonist activity)” value worked out at 49.4 nM.

B2: recombinant native MDC (ligand, UniProt O00626 25-93, looked up)
chain: GPYGANMEDSVCCRDYVRYRLPLRVVKHFYWTSDSCPRPGVVLLTFRDKEICADPRVPWVKMILNKLSQ
As to B2, the EC50, Aequorin assay (agonist activity) with hCCR4 came out at 3.6 nM.

B3: biotinTARC (CCL17), TARC derivatised at the ε-amino side chain functionality of Lys(72) with PEG-Biotin (ligand)
chain: ARGTNVGRECCLEYFKGAIPLRKLKTWYQTSEDCSRDAIVFVTVQGRAICSDPNNKRVKNAVKYLQSLERSK([AEEA-Biotin])-NH2
modifications: disulfide 10-34, 11-50; ends not checked; also: TFA salt
Consider B3, for which the “EC50, Aequorin assay (agonist activity)” value with hCCR4 turned out to be 3.1 nM.

B4: recombinant native CTAC (ligand, UniProt Q9Y4X3 25-112, looked up)
chain: FLLPPSTACCTQLYRKPLSDKLLRKVIQVELQEADGDCHLQAFVLHLAQRSICIHPQNPSLSQWFEHQERKLHGTLPKLNFGMLRKMG
Molecule B4 came in with an EC50, Aequorin assay (agonist activity) with hCCR10 of 33.5 nM.

B5: recombinant native ITAC (ligand, UniProt O14625 22-94, looked up)
chain: FPMFKRGRCLCIGPGVKAVKVADIEKASIMYPSNNCDKIEVIITLKENKGQRCLNPKSKQARLIIKKVERKNF
B5 had an EC50, Aequorin assay (agonist activity) with hCXCR3 (human) [3] of 0.7 nM.
